Test results: patent publication US11466067B2 (priority 2019, dated 2022)

Assays:
[1] = Tablet compression force screening: tablet properties, dimer purity and recovery; format: physicochemical
Experimental: Various compression forces were used to create F1 tablets (TABLE 31) and F2 tablets (TABLE 32). Dimer purity of the target construct was also examined following compaction into a tablet. […] Dimer recovery was also assessed following dissolution of various tablets at pH 7.0 (FIGS. 20A-20D).
An additional tablet (F3) was created, which was similar to an F1 tablet but with glyceryl dibehenate in place of magnesium stearate (TABLE 33). This substitution was made due to incompatibility of magnesium stearate in dissolution of target constructs in solution.

IL-1Ra [2] = format: in vivo, mice; conditions: 9 mg/kg
[3] = Single oral capsule dose in NHP: plasma total IL-10; format: in vivo, Macaca fascicularis
Text: IL-10 delivery constructs (SEQ ID NO: 5) and caffeine were filled by weight into size-1 Capsugel V-Cap Hydroxypropyl Methylcellulose (HPMC) capsules, for oral administration. The capsules were then successively coated in a pan spray coater with three layers of polymers. The first and third layer were thin coatings of HPMC, the first to seal the crease where the capsule shells come together, and the third to minimize sticking of the capsules to each other. The second coating layer was comprised of a 50:50 mixture of Eudragit® (Evonik Industries AG) enteric acrylic polymers FS 30 D and L 30 D-55, designed to dissolve and allow the capsule to open at pH 6.5.
The MSD Small Spot IL-10 plate was washed 3 times with PBST before use. Standards were prepared in Diluent 2 (MSD Cat No R51BB), and samples diluted 2-fold in Diluent 2. Standards and diluted samples were added to the assay plate and the plate incubated for 2 hours at room temperature with shaking. The plate was washed 3 times with PBST and 1×SULFO TAG anti-huIL-10. Antibody was added to the plate before incubation for 1 hour at room temperature with shaking. Following a wash step, 2×MSD Read buffer was added to the wells of the plate and the plate is read in the MSD Sector Imager 600 plate reader. The lower limit of detection of each analyte is defined as 2.5 standard deviation above background.
Plasma samples were analyzed for Total IL-10, IL-1Ra, caffeine content and a panel of proinflammatory cytokines. Assay LLOQs were: total IL-10=0.3 pg/mL; IL-1Ra=78 pg/mL; and caffeine=[…]. Plasma concentration of IL-10 can refer to the concentration in plasma of both naturally occurring IL-10 and IL-10 appended to a carrier (for example, IL-10 in an IL-10 delivery construct described herein).
(§1) IL-10 delivery construct dosing at multiple fixed doses in non-naïve adult male Macaca fascicularis was conducted by Valley Biosystems (West Sacramento, Calif.). […] Dosing groups are described in TABLE 45.
Animals were fasted until after the 3 hour blood sample collection, when food was given. For dosing, the animals were manually restrained and a bite block placed between the jaws. A pill gun containing the dosing capsule was inserted into the back of the oral cavity and the capsule released. Up to 4 capsules were administered consecutively and a small amount of water given to induce swallowing. Once the administration of the dose was confirmed, the bite block was removed and the head released.
(§2) Blood samples were collected in K2EDTA tubes from each animal pre-dose and at 0.5, 1, 2, 3, 4, 5, 6, 7, 8, and 24 hours post-dose. Animals were returned to home cages following the 2-hour sample collection. Following physical restraint, blood samples were collected via direct venous puncture using a cephalic, femoral or saphenous vein, which were processed to plasma and stored frozen at −60° C. until shipment.

IL-1Ra [4] = experiment: Single oral capsule dose in NHP: plasma IL-1Ra; format: in vivo, Macaca fascicularis
Experimental: The purpose of the IL-1Ra assay was to measure endogenous IL-1Ra in NHP plasma. The antibody pair in this sandwich immunoassay reacted with both human and NHP IL-1Ra. Samples were quantitated using an 8-point standard curve prepared from a human IL-1Ra calibrator (ranging from 5.5-4021 pg/mL, plus 0 pg/mL). Biotinylated anti-NHP IL-1Ra capture antibody was added to a MSD Small Spot Streptavidin plate and incubated for an hour at RT with shaking. Controls that represent low ([…]), mid ([…]) and high concentrations (3245 pg/mL) were prepared in pooled plasma, Standards (Calibrator 9 Blend) were prepared in Diluent 43 (MSD Cat No R50AG), and samples diluted 10 fold in Diluent 43. Standards, controls and diluted samples were added to the assay plate, and the plate incubated for 2 hours at room temperature with shaking. The plate was washed 3 times with PBST, and 1×SULFO TAG anti-IL-1Ra Antibody added to the plate. The plate was incubated for 1 hour at room temperature with shaking. Following a wash step, 2×MSD Read buffer was added to the wells of the plate, and the plate read using the MSD Sector Imager 600 plate reader. The lower limit of detection of each analyte is defined as 2.5 standard deviation above background.
as §1, §2

[5] = test system: cells of the Lamina propria; experiment: Cell targeting in the Lamina propria after intraluminal injection (immunofluorescence); format: in vivo, Wistar rats
Experimental: Rats were anesthetized using inhaled isoflurane and euthanized by inhaled CO2.
Experiments were initiated by making an approximately 4 cm abdominal incision to access the mid-jejunum region of the small intestine. After performing the incision, 50 μl of a prepared solution of the IL-10 delivery construct (typically at about 1 mg/mL) was injected into the intestinal lumen of an area devoid of foodstuffs through a 27-gauge needle using a 1 mL syringe. The mesentery adjacent to the site of injection was labeled with a marker and the intestine was returned to the abdominal cavity, with the incision being closed with clamps.
At specific times, the injected intestine was retrieved, surgically isolated and flushed with a 4° C. isotonic PBS. Washed, excised samples were fixed (4% paraformaldehyde in PBS) overnight at 4° C. before dehydration through graded series of ethanol/water solutions and overnight incubation in chloroform.
Dehydrated tissues were immersed in wax, sectioned, and mounted on poylysine slides and processed for antigen retrieval using sodium citrate. Afterward, sections were permeabilised with 0.2% Triton-X100 in PBS prior to thrice washing in PBS and blocking with 2% BSA+2% serum of the animal the secondary antibodies have been raised. Primary antibodies were diluted in 1% BSA, 0.1% Triton-X100 in PBS and incubated overnight at 4° C. in humidified air. Fluorescent secondary antibodies were diluted in 1% BSA, 0.1% Triton-X100 in PBS and incubated for 2 h at RT prior to processing for confocal microscopy. On occasion, an approximately 1 cm section of intestine at the injection site was collected for biochemical studies.
Proteins for specific cell types were examined by immuno-fluorescence using confocal microscopy. The IL-10 delivery construct components (the carrier, also referred to herein as “cholix,” and IL-10) were followed separately with either a polyclonal antibody (pAb) or monoclonal antibody (mAb) to IL-10 or a pAb or mAb to the carrier domain to allow co-localization with pAb or mAbs available (TABLE 46).

B1: IL-10 delivery construct: recombinant homodimeric fusion protein: N-terminal methionine, cholix386 domain, polyGlySer spacer, recombinant human IL-10 (protein)
chain: MVEEALNIFDECRSPCSLTPEPGKPIQSKLSIPSDVVLDEGVLYYSMTINDEQNDIKDEDKGESIITIGEFATVRATRHYVNQDAPFGVIHLDITTENGTKTYSYNRKEGEFAINWLVPIGEDSPASIKISVDELDQQRNIIEVPKLYSIDLDNQTLEQWKTQGNVSFSVTRPEHNIAISWPSVSYKAAQKEGSRHKRWAHWHTGLALCWLVPMDAIYNYITQQNCTLGDNWFGGSYETVAGTPKVITVKQGIEQKPVEQRIHFSKGNAMSALAAHRVCGVPLETLARSRKPRDLTDDLSCAYQAQNIVSLFVATRILFSHLDSVFTLNLDEQEPEVAERLSDLRRINENNPGMVTQVLTVARQIYNDYVTHHPGLTPEQTSAGAQAGGGGSGGGGSGGGGSPGQGTQSENSCTHFPGNLPNMLRDLRDAFSRVKTFFQMKDQLDNLLLKESLLEDFKGYLGCQALSEMIQFYLEEVMPQAENQDPDIKAHVNSLGENLKTLRLRLRRCHRFLPCENKSKAVEQVKNAFNKLQEKGIYKAMSEFDIFINYIEAYMTMKIRN
modifications: homodimer
For B1, the “robustness of protein to compaction, granulation and tableting (dimer purity)” value [1] was “robust to compaction and granulation, although some aggregation was observed in final tablet form”, the “IL-1Ra mRNA in near-distal colonic tissue” value (IL-1Ra [2]) was “trend towards augmented mRNA expression of IL-1Ra” and the “IL-1Ra/IL-1β ratio in colonic tissue” value (IL-1Ra [2]) was “increase in the IL-1Ra/IL-1β ratio”. The “plasma total IL-10 Tmax” value ([3]; 1 mg) was 4 h, the “plasma total IL-10 Tmax” value ([3]; 4 mg) was 3 h and the “plasma total IL-10 Tmax” value ([3]; 20.5 mg) was 2 hours post dose. For the same molecule, the “plasma total IL-10 Tmax” value ([3]; 82 mg) was 2 hours post dose, the “plasma total IL-10 Cmax” value ([3]; 82 mg (4×20.5 mg capsules), oral) was 1.34 pg/mL and the “time of plasma IL-1Ra Cmax” value (IL-1Ra [4]; 82 mg) was 3 hours post-dose. The “dose response of IL-1Ra Cmax” value (IL-1Ra [4]; 1, 4 and 20.5 mg) was “No dose response relationship”, the “time by which plasma IL-1Ra returned to baseline” value (IL-1Ra [4]; all dose groups) was at most 24 hour post-dose and the “time by which extensive amount reached the Lamina propria” value ([5]; 1-minute pulse, intraluminal injection) was at most 15 min. For the same molecule, the “co-localization with LAMP1-positive lysosomes in enterocytes” value ([5]; 15-minute time course) was “little or no co-localization”, the “co-localization with CD3 antigen (T lymphocytes)” value ([5]; Lamina propria) was “striking co-localizations” and the “co-localization with CD19-positive cells (B-lymphocytes)” value ([5]; Lamina propria) was “failed to co-localize”. The “co-localization with CD34-positive cells (endothelia)” value ([5]; Lamina propria) was “failed to co-localize” and the “co-localization with CD11c antigen (dendritic cells)” value ([5]; Lamina propria, rat jejunum) was “did not co-localize with CD11c antigen to any striking extent”.
